The values that follow come from article PMC8442553 (Science (New York, N.Y.), 2019).

Holding throughout (experiment): cryo-EM structure
The target in one assay is T1, Sth1 (yeast, UniProt P32597 1-1359).
T1 sequence: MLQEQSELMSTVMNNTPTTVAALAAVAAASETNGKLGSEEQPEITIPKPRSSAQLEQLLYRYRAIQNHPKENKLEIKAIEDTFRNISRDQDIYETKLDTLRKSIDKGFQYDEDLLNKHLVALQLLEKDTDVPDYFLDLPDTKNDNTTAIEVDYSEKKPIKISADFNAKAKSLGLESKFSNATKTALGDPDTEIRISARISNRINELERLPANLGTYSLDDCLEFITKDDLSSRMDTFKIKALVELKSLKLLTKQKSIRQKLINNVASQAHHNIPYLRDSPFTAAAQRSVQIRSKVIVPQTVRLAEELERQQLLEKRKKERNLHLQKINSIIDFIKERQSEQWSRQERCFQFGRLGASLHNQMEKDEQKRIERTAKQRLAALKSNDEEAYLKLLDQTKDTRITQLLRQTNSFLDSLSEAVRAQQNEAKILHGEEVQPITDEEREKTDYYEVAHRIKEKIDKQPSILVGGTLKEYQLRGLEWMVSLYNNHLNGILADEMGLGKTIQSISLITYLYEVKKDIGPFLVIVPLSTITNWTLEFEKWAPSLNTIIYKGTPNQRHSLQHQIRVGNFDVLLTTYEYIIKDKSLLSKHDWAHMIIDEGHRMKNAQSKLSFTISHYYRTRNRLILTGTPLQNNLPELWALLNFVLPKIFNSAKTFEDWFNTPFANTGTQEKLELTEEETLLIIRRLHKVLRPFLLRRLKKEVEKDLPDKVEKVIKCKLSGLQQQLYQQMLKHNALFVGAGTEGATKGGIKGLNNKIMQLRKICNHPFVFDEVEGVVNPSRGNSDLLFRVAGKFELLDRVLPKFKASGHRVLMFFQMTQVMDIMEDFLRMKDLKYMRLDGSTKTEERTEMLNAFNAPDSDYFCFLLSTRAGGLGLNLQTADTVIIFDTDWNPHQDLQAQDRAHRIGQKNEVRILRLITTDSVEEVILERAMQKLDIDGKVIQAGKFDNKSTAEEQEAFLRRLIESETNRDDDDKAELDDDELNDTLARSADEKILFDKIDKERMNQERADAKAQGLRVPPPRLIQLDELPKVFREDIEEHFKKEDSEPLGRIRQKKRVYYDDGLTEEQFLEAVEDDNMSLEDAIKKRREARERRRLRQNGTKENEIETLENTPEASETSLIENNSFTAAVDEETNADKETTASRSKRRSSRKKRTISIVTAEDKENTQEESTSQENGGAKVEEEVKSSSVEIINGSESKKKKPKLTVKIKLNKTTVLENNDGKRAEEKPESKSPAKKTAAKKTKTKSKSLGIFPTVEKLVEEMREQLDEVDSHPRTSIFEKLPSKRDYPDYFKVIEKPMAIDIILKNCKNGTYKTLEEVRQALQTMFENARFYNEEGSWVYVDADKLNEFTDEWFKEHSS

For another assay, the target named is T2, Rsc8 (yeast, UniProt P43609 1-557).
T2 sequence: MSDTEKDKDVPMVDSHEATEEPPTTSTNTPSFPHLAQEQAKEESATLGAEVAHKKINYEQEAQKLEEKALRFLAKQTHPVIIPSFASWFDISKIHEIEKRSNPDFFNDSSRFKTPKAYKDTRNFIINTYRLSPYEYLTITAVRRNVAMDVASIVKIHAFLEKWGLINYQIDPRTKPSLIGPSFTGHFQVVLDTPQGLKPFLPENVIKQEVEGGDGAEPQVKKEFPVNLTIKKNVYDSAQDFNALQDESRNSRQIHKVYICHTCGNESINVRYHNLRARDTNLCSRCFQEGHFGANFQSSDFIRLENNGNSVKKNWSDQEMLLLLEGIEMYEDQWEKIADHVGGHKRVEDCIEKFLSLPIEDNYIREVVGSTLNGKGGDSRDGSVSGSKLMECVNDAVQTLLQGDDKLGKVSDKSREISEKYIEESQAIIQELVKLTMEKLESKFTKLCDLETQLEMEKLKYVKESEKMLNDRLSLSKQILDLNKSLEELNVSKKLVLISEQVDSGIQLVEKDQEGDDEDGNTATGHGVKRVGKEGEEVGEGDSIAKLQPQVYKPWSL

The next assay has as its target T3, Rsc3 (yeast, UniProt Q06639 1-885).
T3 sequence: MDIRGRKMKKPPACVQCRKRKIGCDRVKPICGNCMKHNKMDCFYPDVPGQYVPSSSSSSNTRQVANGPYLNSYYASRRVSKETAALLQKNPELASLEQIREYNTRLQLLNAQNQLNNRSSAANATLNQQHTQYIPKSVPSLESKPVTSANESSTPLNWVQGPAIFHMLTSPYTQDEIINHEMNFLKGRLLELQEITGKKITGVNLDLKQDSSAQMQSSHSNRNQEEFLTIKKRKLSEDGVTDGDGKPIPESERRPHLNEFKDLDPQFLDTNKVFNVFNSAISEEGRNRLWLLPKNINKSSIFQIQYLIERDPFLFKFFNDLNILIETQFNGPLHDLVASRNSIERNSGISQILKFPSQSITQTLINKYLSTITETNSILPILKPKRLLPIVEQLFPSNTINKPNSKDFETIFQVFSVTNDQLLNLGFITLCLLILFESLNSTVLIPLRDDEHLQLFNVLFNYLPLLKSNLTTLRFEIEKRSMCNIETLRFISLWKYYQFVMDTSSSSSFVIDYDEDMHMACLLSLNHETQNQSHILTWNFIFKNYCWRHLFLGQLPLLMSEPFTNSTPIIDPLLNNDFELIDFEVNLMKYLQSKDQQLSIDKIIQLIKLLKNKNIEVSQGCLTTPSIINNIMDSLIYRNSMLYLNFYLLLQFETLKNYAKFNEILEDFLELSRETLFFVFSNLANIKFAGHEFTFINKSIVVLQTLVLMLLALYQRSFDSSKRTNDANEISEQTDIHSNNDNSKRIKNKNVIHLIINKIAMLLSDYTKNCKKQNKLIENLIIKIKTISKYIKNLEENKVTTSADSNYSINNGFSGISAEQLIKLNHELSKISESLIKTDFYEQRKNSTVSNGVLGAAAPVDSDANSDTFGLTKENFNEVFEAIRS

B1: Arp7 (natural protein, yeast)
chain: MTLNRKCVVIHNGSHRTVAGFSNVELPQCIIPSSYIKRTDEGGEAEFIFGTYNMIDAAAEKRNGDEVYTLVDSQGLPYNWDALEMQWRYLYDTQLKVSPEELPLVITMPATNGKPDMAILERYYELAFDKLNVPVFQIVIEPLAIALSMGKSSAFVIDIGASGCNVTPIIDGIVVKNAVVRSKFGGDFLDFQVHERLAPLIKEENDMENMADEQKRSTDVWYEASTWIQQFKSTMLQVSEKDLFELERYYKEQADIYAKQQEQLKQMDQQLQYTALTGSPNNPLVQKKNFLFKPLNKTLTLDLKECYQFAEYLFKPQLISDKFSPEDGLGPLMAKSVKKAGASINSMKANTSTNPNGLGTSHINTNVGDNNSTASSSNISPEQVYSLLLTNVIITGSTSLIEGMEQRIIKELSIRFPQYKLTTFANQVMMDRKIQGWLGALTMANLPSWSLGKWYSKEDYETLKRDRKQSQATNATN
In the case of B1, the binding result with Sth1 is recorded as “binds”.

B2: Htl1 (natural protein, yeast)
chain: MSQNNTISSMNPERAYNNVTLKNLTAFQLLSQRENICELLNLVESTERHNSIINPERQRMSLEEMKKMLDALKNERKK
Regarding B2, in the assay with Rsc8, the binding result is “binds”.

B3: Rsc7 (natural protein, yeast)
chain: MSDSEGGLASEVEHEKRSRSTSNRPNYAIDTEDLDIDENDENEDDDYREEEANEGVNEEEISDEEEQINKSGRNKRRHVDEEEDLSEDKGVTRSRNRSKFKKPVFPGIDDAEENLNPLKVVNEEYVLPDDPEGETKITADGDLLGGREFLVRTFTLTEKGNRKFMLATEPARIVGFRDSYLFFQTHPNLYKFILNQTQKNDLIDRGVLPYSYRNRQIALVTARGVFKEFGAKIIRGGKHITDDYYASELRTKGNVIEGKLAGDPIDKSARALETMMYPASENGINPAKNQVEFFEHRPHGHMSNSNIIASGSKLSSTNWLYQHSAACSRFNSDLFYDRVKVLLVDQQGLRDAYTNILHIPESTQSTTVLGWRRSKNDSPSDTSIVYETVIHDNDLNKPKTGLSEIPKEIYEDVVDEDVLRAITEQQNFEKCNEYI
For B3, in the assay with Rsc8, the binding result is listed as “binds”.

B4: Rsc30 (natural protein, yeast)
chain: MMDMQVRKVRKPPACTQCRKRKIGCDRAKPICGNCVKYNKPDCFYPDGPGKMVAVPSASGMSTHGNGQGSNHFSQGNGVNQKNVMIQTQYPIMQTSIEAFNFSFNPSVDTAMQWTKAASYQNNNTNNNTAPRQNSSTVSSNVHGNTIVRSDSPDVPSMDQIREYNTRLQLVNAQSFDYTDNPYSFNVGINQDSAVFDLMTSPFTQEEVLIKEIDFLKNKLLDLQSLQLKSLKEKSNLNADNTTANKINKTGENSKKGKVDGKRAGFDHQTSRTSQSSQKYFTALTITDVQSLVQVKPLKDTPNYLFTKNFIIFRDHYLFKFYNILHDICHINQFKVSPPNNKNHQQYMEVCKVNFPPKAIIIETLNSESLNNLNIEEFLPIFDKTLLLEFVHNSFPNGDTCPSFSTVDLPLSQLTKLGELTVLLLLLNDSMTLFNKQAINNHVSALMNNLRLIRSQITLINLEYYDQETIKFIAITKFYESLYMHDDHKSSLDEDLSCLLSFQIKDFKLFHFLKKMYYSRHSLLGQSSFMVPAAENLSPIPASIDTNDIPLIANDLKLLETQAKLINILQGVPFYLPVNLTKIESLLETLTMGVSNTVDLYFHDNEVRKEWKDTLNFINTIVYTNFFLFVQNESSLSMAVQHSSNNNKTSNSERCAKDLMKIISNMHIFYSITFNFIFPIKSIKSFSSGNNRFHSNGKEFLFANHFIEILQNFIAITFAIFQRCEVILYDEFYKNLSNEEINVQLLLIHDKILEILKKIEIIVSFLRDEMNSNGSFKSIKGFNKVLNLIKYMLRFSKKKQNFARNSDNNNVTDYSQSAKNKNVLLKFPVSELNRIYLKFKEISDFLMEREVVQRSIIIDKDLESDNLGITTANFNDFYDAFYN
Consider B4, for which, in the assay with Rsc3, the binding result is reported as “binds”.

B5: Arp9 (natural protein, yeast)
chain: MAPFRQDSILIIYPRSQTTLVQFGLNEETFTVPELEIPTQIYRTTRQDGSYTYHSTNKDNKAELIKPIQNGEIIDISAFTQFLRLIFVSILSDRANKNQDAFEAELSNIPLLLITHHSWSQSDLEIITQYVFESLEINNLIQLPASLAATYSMISLQNCCIIDVGTHHTDIIPIVDYAQLDHLVSSIPMGGQSINDSLKKLLPQWDDDQIESLKKSPIFEVLSDDAKKLSSFDFGNENEDEDEGTLNVAEIITSGRDTREVLEERERGQKVKNVKNSDLEFNTFWDEKGNEIKVGKQRFQGCNNLIKNISNRVGLTLDNIDDINKAKAVWENIIIVGGTTSISGFKEALLGQLLKDHLIIEPEEEKSKREEEAKSVLPAATKKKSKFMTNSTAFVPTIEYVQCPTVIKLAKYPDYFPEWKKSGYSEIIFLGAQIVSKQIFTHPKDTFYITREKYNMKGPAALWDVQF
As to B5, the binding result with Sth1 is listed as “binds”.

B6: Rtt102 (natural protein, yeast)
chain: MDPQTLITKANKVSYYGNPTSKESWRYDWYQPSKVSSNVQQPQQQLGDMENNLEKYPFRYKTWLRNQEDEKNLQRESCEDILDLKEFDRRILKKSLMTSHTKGDTSKATGAPSANQGDEALSVDDIRGAVGNSEAIPGLSAGVNNDNTKESKDVKMN
On to B6, for which, in the assay with Sth1, the binding result is on record as “binds”.

B7: Rsc58 (natural protein, yeast)
chain: MTESVGGNKLVDFLVNVQSILNAASVKCHVVDESFPAKFFEKNPDKIYESYCKFIKNRSNSEGLIRNEDKLVLTTINKRFENGEYEPIQGGFYKLYHDIKLVCTILIHFYPQGTRNYQLVDKFYKFSSELLLRECCRIGIALTQTNNIKSRSGKLLSGNEMDEYDDDDATELDKIISYDFIKISMNYTVPISQTYQIRTKDMDLFSSIISKSNLDKRPHELPNTNFKINNVLPQTDIENEAPRLGFVGANTSNIPDPTLPPTEMMTRFLHPNWYALPTTVWLKYGNYNSWAPSFNENGTVVDSTTRGLIWLERIGYMDLYEKNEKKVKQEELLNTNEEGINRKQNDENNKNVDGKSNGVQDDGGDNDNDATIASANSESTENKEQFIIKLQNLYNWTPSNYIGDDEIENFRNGTPDKLVSDSLLKLKRLRKERILNKVLKPTTEERELYFKVKRILKEVILAKKVSKVPINNVRAFPVLQTNYNGSIPVVRAQPGRKRKHKK
For B7, the binding result with Sth1 and with Rsc8 was “binds” each time.
